Target: IL-1β receptor of the hepatic sinusoidal endothelium (HSE) cells (mouse) (UniProt P13504)
Experiment: cell-based or functional assay

Sequence of UniProt P13504 (P13504 20-576): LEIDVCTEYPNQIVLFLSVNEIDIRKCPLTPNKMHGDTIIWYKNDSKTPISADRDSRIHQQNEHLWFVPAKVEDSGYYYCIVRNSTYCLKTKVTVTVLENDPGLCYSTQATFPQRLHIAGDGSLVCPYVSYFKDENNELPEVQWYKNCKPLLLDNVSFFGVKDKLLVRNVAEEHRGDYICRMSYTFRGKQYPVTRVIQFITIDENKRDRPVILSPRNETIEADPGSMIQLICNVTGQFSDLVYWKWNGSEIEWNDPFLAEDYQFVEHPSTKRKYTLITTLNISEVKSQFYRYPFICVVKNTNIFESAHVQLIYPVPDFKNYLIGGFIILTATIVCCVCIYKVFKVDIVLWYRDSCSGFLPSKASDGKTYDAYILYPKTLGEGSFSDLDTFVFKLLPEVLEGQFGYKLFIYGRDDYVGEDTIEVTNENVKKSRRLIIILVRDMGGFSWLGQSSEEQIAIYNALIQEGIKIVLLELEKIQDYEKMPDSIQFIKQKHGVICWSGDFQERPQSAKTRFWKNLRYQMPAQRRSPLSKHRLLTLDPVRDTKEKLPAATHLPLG

## recombinant C. albicans Kre9 (CaKre9) protein expressed in E. coli, fused to an HSV tag and 6 histidine residues (from UniProt O74226 22-271)
  increase of the tumor adhesion (B16M cells) to the HSE with respect to the control: > 150%

Reference: patent US20120183532A1
